2 substances from publication PMC5290283 can be followed below.

The target in the assay is C-terminal region of APC (APC-CT), FLAG-tagged. Nature of the assay: AlphaScreen. The settings on record: Donor: Gag MA-GST-biotin; acceptor: APC(CT)-FLAG; n=3; parent: est. 2.1; read off a plot.

For “Fyn(10)WT (wild-type protein of the AlphaScreen with MA HBR mutants) 6A2T: HBR segment […] -> […] (K>A; K>A; R>A; R>A; K>A; K>A; K>T; K>T, in segment order)”, the response is 0.25 10^3 RLU.
Consider “Fyn(10)WT (wild-type protein of the AlphaScreen with MA HBR mutants) RKswitch: HBR segment […] -> […] (K>R; K>R; R>K; R>K; K>R; K>R; K>R; K>R, in segment order)”, for which the response is 2.3 10^3 RLU.
